Consider 3 molecules from patent publication US20190330280, “TRANSCRIPTIONAL REGULATORY FUSION POLYPEPTIDE” (Astellas Pharma Inc., published 2019).

Common to all, as to assay: cell_activity; human T cells, 3.0 nM protein added to medium, 24 h, 37 C
Conditions in all cases: tags: N-terminal GST, NTP cell-penetrating peptide, p300 core fusion

One data set concerns the target T1, NTP-TALE-TERT-1-p300CD (artificial, UniProt P14727 SEQ:29-906).
T1 chain: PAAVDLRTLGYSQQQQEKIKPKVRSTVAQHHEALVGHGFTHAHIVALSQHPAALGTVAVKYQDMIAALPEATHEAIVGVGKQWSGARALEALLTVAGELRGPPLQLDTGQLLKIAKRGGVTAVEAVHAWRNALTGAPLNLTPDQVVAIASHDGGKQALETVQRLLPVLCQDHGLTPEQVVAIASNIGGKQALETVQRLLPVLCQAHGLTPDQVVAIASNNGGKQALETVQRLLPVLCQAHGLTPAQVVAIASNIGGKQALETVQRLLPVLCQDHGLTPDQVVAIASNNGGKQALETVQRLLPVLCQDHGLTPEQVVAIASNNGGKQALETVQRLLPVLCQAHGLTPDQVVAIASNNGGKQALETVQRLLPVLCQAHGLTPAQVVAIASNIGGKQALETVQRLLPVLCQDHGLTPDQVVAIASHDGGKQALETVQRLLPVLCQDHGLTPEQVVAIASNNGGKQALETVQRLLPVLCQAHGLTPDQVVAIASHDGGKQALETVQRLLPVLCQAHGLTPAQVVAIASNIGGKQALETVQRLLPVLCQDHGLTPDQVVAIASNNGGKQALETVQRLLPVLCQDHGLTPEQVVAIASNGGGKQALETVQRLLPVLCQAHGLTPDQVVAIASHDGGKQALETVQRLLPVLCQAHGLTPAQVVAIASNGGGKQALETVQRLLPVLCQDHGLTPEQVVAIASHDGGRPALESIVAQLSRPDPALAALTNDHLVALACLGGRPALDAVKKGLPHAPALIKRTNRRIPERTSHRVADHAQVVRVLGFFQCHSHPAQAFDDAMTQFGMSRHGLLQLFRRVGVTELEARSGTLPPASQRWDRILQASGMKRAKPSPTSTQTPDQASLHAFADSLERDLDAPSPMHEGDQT
The method, then:
(§1) Each NTP-TALE-Activator (NTP-TALE-TERT-1-p300CD, NTP-TALE-TERT-2-p300CD and NTP-TALE-TERT-3-p300CD) targeting human TERT, prepared in Example 1 was dialyzed at 4° C. for 3 hours against OPTI-MEM medium (Thermo Fisher Scientific Inc.) in a microdialysis column (Tomy Seiko Co., Ltd.). The concentrations after purification were 40 nM NTP-TALE-TERT-1-p300CD, 55 nM NTP-TALE-TERT-2-p300CD, and 55 nM NTP-TALE-TERT-3-p300CD. Human T cells (obtained by separation from peripheral mononuclear cells in blood collected from a healthy person) were suspended in 100 μL of KBM550 (Kohjin Bio Co., Ltd.) and seeded in a 96-well plate at 0.5×10⁴ cells/well.
(§2) The obtained human T cells were cultured for 12 hours. Then, each NTP-TALE-Activator dialyzed as mentioned above was added at 3.0 nM (final concentration) to each well (as a result of conducting studies beforehand with a plurality of concentrations, the concentration at which each NTP-TALE-Activator was most responsive was 3.0 nM). Wells to which NTP-TALE-Activator was not added were prepared as a control. The plate was left standing for 24 hours in an incubator at 37° C. and a CO₂ concentration of 5%.

The next data set concerns the target T2, NTP-TALE-TERT-2-p300CD (artificial, UniProt P14727 SEQ:29-906).
T2 chain: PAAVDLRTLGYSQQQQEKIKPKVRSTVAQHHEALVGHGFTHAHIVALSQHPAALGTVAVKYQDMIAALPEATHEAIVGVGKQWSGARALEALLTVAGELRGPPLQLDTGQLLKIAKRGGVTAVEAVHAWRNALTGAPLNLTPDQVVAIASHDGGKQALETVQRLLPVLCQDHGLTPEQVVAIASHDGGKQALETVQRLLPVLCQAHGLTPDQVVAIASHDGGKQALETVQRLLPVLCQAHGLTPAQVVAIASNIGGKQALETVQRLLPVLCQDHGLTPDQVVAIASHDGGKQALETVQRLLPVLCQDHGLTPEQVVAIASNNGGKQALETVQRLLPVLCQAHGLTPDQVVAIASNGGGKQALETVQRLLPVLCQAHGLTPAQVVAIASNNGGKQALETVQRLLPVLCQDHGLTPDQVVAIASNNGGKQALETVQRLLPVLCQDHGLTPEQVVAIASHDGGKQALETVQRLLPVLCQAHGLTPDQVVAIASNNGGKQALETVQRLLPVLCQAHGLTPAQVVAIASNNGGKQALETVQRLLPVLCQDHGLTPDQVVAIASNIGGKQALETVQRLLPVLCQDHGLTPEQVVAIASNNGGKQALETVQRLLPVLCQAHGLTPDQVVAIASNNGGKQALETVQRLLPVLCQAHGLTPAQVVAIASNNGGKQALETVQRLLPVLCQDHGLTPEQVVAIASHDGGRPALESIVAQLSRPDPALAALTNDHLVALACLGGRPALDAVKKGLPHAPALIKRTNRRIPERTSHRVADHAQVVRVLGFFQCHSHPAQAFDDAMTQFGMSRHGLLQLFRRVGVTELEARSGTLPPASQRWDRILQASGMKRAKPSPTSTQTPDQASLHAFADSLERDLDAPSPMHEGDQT
As for the experimental part:
as §1, §2

The target of a further data set is T3, NTP-TALE-TERT-3-p300CD (artificial, UniProt P14727 SEQ:29-906).
T3 chain: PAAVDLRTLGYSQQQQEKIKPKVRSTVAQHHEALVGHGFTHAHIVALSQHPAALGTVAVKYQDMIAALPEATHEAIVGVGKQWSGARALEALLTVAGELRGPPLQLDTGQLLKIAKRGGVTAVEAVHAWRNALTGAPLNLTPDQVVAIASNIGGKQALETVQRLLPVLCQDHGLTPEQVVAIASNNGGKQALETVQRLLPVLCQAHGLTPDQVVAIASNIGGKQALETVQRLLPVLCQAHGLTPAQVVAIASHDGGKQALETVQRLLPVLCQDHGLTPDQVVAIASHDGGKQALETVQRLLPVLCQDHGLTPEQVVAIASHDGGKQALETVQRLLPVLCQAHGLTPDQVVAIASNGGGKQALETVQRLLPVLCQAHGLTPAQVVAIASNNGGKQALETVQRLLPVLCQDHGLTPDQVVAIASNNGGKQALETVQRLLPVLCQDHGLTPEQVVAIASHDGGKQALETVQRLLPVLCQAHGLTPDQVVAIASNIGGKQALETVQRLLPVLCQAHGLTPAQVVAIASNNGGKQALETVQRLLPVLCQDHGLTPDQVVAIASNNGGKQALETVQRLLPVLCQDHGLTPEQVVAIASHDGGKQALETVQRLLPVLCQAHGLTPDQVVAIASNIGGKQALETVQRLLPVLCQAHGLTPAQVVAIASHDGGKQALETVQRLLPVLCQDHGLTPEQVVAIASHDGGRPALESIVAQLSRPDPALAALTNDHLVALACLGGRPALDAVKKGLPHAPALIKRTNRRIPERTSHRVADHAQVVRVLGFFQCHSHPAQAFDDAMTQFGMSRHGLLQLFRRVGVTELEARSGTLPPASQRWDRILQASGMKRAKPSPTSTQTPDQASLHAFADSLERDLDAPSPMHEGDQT
The method, then:
as §1, §2

B1: human TERT enhancer target (AH007699.2 nt 49444-49461) (dsDNA)
DNA 1: TCAGAGGGACGCAGTCTT
DNA 2: AAGACTGCGTCCCTCTGA
B1: the activity in the data set with NTP-TALE-TERT-1-p300CD was roughly 17 fold TERT mRNA.

B2: human TERT promoter target (AH007699.2 nt 11029-11046) (dsDNA)
DNA 1: CCCCACGTGGCGGAGGGA
DNA 2: TCCCTCCGCCACGTGGGG
With B2, the activity with NTP-TALE-TERT-2-p300CD was roughly 3.5 fold TERT mRNA.

B3: human TERT enhancer target (AH007699.2 nt 6501-6518) (dsDNA)
DNA 1: TAGACCCTGGCAGGCACT
DNA 2: AGTGCCTGCCAGGGTCTA
B3 displayed an activity in the data set with NTP-TALE-TERT-3-p300CD of roughly 2 fold TERT mRNA.
